{
  "source": "patent US20250092146A1",
  "about": "(ABILITA BIO, published 2025)",
  "key": {"human CCR8 (hCCR8) [1]": {"molecular_target": "T1, human CCR8 (hCCR8) (human, UniProt P51685 1-355)", "T1 construct": "On transfected HEK293/HEK293T cells, or naturally expressed on HuT-78 cells; also called C-C chemokine receptor type 8", "T1 sequence (P51685 whole entry)": "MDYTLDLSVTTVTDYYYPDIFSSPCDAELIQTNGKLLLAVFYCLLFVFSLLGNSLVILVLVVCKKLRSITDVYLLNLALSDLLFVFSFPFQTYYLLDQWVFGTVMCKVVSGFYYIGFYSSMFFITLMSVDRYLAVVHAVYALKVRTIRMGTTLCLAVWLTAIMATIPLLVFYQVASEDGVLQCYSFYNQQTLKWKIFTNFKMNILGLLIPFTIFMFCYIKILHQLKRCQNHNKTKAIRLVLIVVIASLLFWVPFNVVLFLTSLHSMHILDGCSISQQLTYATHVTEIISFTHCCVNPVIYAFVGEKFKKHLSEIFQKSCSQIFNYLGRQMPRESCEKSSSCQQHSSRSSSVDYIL", "assay": "competition with 10 nM VHH-1-Fc, flow cytometry on HEK293-hCCR8 cells", "protocol": "Binding studies were conducted on hCCR8 expressing cells for 60 minutes at 4° C., followed by two washes and then 30 minutes incubation at 4° C. with the Zenon R-Phycoerythrin Anti-human IgG secondary antibody (ThermoFisher Scientific, #Z-25455). Binding to cells was assessed by flow cytometry."}, "human CCR8 (hCCR8) [2]": {"molecular_target": "T1, human CCR8 (hCCR8)", "assay": "cell-based or functional assay"}, "[3]": {"molecular_target": "T2, Chimera A (hCCR8 with its N-terminus replaced by amino acids 1-22 of hCCR1) (human (hCCR8/hCCR1 chimera), UniProt P51685 18-355)", "T2 construct": "Transiently transfected HEK293T cells", "T2 sequence (P51685 other isoform, or with tags, fused parts or gaps mutant)": "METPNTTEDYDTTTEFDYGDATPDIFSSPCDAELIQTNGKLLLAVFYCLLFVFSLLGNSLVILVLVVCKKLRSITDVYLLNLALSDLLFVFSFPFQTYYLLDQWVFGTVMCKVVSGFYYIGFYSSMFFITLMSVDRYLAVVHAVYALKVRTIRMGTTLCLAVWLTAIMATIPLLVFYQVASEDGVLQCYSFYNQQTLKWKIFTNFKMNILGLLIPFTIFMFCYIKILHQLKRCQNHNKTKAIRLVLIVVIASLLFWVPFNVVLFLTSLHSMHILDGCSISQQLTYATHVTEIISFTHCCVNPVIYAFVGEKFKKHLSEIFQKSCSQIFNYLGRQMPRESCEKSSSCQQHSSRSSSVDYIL", "assay": "flow cytometry (MFI), HEK293T cells expressing Chimera A (hCCR8 with hCCR1 N-terminus)", "excerpt": "Determination of binding epitope location on hCCR8 was done for representative VHH-Fc antibodies by flow cytometry analysis using HEK293T cells expressing hCCR8 or two receptor chimeras comprised of combined sequence elements taken from hCCR8 (SEQ ID NO: 37) and hCCR1 (SEQ ID NO: 39). In the first, Chimera A based on hCCR8, the N-terminal region of the receptor (SEQ ID NO: 38) was replaced with a sequence encoding the N-terminal region of hCCR1 (SEQ ID NO: 40). In Chimera B based on hCCR1, the N-terminal region of the receptor was replaced by the sequence encoding the hCCR8 N-terminus (SEQ ID NO: 38)."}, "human CCR7 (hCCR7)": {"molecular_target": "T3, human CCR7 (hCCR7) (human, UniProt P32248 25-378)", "T3 construct": "HEK293 cells stably expressing hCCR7", "T3 sequence": "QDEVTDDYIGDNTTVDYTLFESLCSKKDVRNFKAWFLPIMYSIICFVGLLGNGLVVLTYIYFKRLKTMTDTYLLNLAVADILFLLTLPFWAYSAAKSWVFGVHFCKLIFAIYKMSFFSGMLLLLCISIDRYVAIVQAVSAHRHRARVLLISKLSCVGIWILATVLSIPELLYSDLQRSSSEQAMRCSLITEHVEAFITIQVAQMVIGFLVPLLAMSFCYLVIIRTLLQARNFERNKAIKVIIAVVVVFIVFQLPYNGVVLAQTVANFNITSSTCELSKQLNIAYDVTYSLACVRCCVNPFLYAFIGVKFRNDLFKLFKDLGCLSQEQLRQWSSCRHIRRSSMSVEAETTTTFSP", "assay": "flow cytometry, HEK293 cells stably expressing hCCR7, anti-VHH detection", "protocol": "Recombinant cells expressing hCCR8 were resuspended to a final concentration of 1.0×10⁶ cells/ml in FACS buffer. […] Dilutions of purified VHHs were incubated with cells for 60 min. Individual samples were distributed into 96-well v-bottom plates and incubated for one hour at 4° C. […] Binding was determined in parallel on HEK293 cells stably expressing the closely related receptor hCCR7 (SEQ ID NO: 41), as control for binding specificity."}},
  "data": [
    {"binder": "CCL1 (ligand, UniProt P22362 24-96, looked up, also called hCCR8 agonist CCL1) KSMQVPFSRCCFSFAEQEIPLRAILCYRNTSSICSNEGLIFKLKRGKEACALDTVGWVQRHRKMLRHCPSKRK", "values": [
      {"measurement": "binding result", "setting": "human CCR8 (hCCR8) [1]", "value": "binds"}
    ]},
    {"binder": "VHH-1-mFc (Fc fusion) QVQLQESGGGLVQAGGSLRLSCVASGSTSSIRRIGWYRQAPGKQRELVARFSSGGGTNYADFVKGRFTISGDNAKNTMYLQMNSLKPEDTAVYYCSARRLLGTSRVDYWGQGTQVTVSSEPRGPTIKPCPPCKCPAPNLLGGPSVFIFPPKIKDVLMISLSPIVTCVVVDVSEDDPDVQISWFVNNVEVHTAQTQTHREDYNSTLRVVSALPIQHQDWMSGKEFKCKVNNKDLPAPIERTISKPKGSVRAPQVYVLPPPEEEMTKKQVTLTCMVTDFMPEDIYVEWTNNGKTELNYKNTEPVLDSDGSYFMYSKLRVEKKNWVERNSYSCSVVHEGLHNHHTTKSFSRTPGK", "values": [
      {"measurement": "EC50 (nM), ADCC reporter assay, mouse FcγRIV effector cells, HuT-78 target cells", "setting": "human CCR8 (hCCR8) [2]", "value": 0.015, "unit": "nM"},
      {"measurement": "Fold Induction, ADCC reporter assay, mouse FcγRIV effector cells, HuT-78 target cells", "setting": "human CCR8 (hCCR8) [2]", "value": 12, "unit": "fold"}
    ]},
    {"binder": "VHH-1.3-7-mFc (Fc fusion) EVQLVESGGGLVQPGGSLRLSCAVSGSTSSIRRIGWYRQAPGKGRELVAHFSSGGGTNYADSVKGRFTISGDKSKNTMYLQMNSLRAEDTAVYYCSARRLLGTSRVDYWGQGTTVTVSSEPRGPTIKPCPPCKCPAPNLLGGPSVFIFPPKIKDVLMISLSPIVTCVVVDVSEDDPDVQISWFVNNVEVHTAQTQTHREDYNSTLRVVSALPIQHQDWMSGKEFKCKVNNKDLPAPIERTISKPKGSVRAPQVYVLPPPEEEMTKKQVTLTCMVTDFMPEDIYVEWTNNGKTELNYKNTEPVLDSDGSYFMYSKLRVEKKNWVERNSYSCSVVHEGLHNHHTTKSFSRTPGK", "values": [
      {"measurement": "EC50 (nM), ADCC reporter assay, mouse FcγRIV effector cells, HuT-78 target cells", "setting": "human CCR8 (hCCR8) [2]", "value": 0.007, "unit": "nM"},
      {"measurement": "Fold Induction, ADCC reporter assay, mouse FcγRIV effector cells, HuT-78 target cells", "setting": "human CCR8 (hCCR8) [2]", "value": 12, "unit": "fold"}
    ]},
    {"binder": "VHH-1.3-21-mFc (Fc fusion) EVQLVESGGGLVQPGGSLRLSCAVSGSTSSIRGIGWYRQAPGKGRELVARFISGGGTNYADSVKGRFTISADNSKNTMYLQMNSLRAEDTAVYYCSARRLLGTSRVDYWGQGTQVTVSSEPRGPTIKPCPPCKCPAPNLLGGPSVFIFPPKIKDVLMISLSPIVTCVVVDVSEDDPDVQISWFVNNVEVHTAQTQTHREDYNSTLRVVSALPIQHQDWMSGKEFKCKVNNKDLPAPIERTISKPKGSVRAPQVYVLPPPEEEMTKKQVTLTCMVTDFMPEDIYVEWTNNGKTELNYKNTEPVLDSDGSYFMYSKLRVEKKNWVERNSYSCSVVHEGLHNHHTTKSFSRTPGK", "values": [
      {"measurement": "EC50 (nM), ADCC reporter assay, mouse FcγRIV effector cells, HuT-78 target cells", "setting": "human CCR8 (hCCR8) [2]", "value": 0.042, "unit": "nM"},
      {"measurement": "Fold Induction, ADCC reporter assay, mouse FcγRIV effector cells, HuT-78 target cells", "setting": "human CCR8 (hCCR8) [2]", "value": 11.4, "unit": "fold"}
    ]},
    {"binder": "VHH-1.3-19-mFc (Fc fusion) EVQLVESGGGLVQPGGSLRLSCAVSGSTSSIRGIGWYRQAPGKGRELVAHFSSGGGTNYADSVKGRFTISGDKSKNTMYLQMNSLRAEDTAVYYCSARRLLGTSRVDYWGQGTQVTVSSEPRGPTIKPCPPCKCPAPNLLGGPSVFIFPPKIKDVLMISLSPIVTCVVVDVSEDDPDVQISWFVNNVEVHTAQTQTHREDYNSTLRVVSALPIQHQDWMSGKEFKCKVNNKDLPAPIERTISKPKGSVRAPQVYVLPPPEEEMTKKQVTLTCMVTDFMPEDIYVEWTNNGKTELNYKNTEPVLDSDGSYFMYSKLRVEKKNWVERNSYSCSVVHEGLHNHHTTKSFSRTPGK", "values": [
      {"measurement": "EC50 (nM), ADCC reporter assay, mouse FcγRIV effector cells, HuT-78 target cells", "setting": "human CCR8 (hCCR8) [2]", "value": 0.024, "unit": "nM"},
      {"measurement": "Fold Induction, ADCC reporter assay, mouse FcγRIV effector cells, HuT-78 target cells", "setting": "human CCR8 (hCCR8) [2]", "value": 11.3, "unit": "fold"}
    ]},
    {"binder": "VHH-1.3-20-mFc (Fc fusion) EVQLVESGGGLVQPGGSLRLSCAVSGSTSSIRGIGWYRQAPGKGRELVARFISGGGTNYADSVKGRFTISGDNSKNTMYLQMNSLRAEDTAVYYCSARILLGTSRVDYWGQGTQVTVSSEPRGPTIKPCPPCKCPAPNLLGGPSVFIFPPKIKDVLMISLSPIVTCVVVDVSEDDPDVQISWFVNNVEVHTAQTQTHREDYNSTLRVVSALPIQHQDWMSGKEFKCKVNNKDLPAPIERTISKPKGSVRAPQVYVLPPPEEEMTKKQVTLTCMVTDFMPEDIYVEWTNNGKTELNYKNTEPVLDSDGSYFMYSKLRVEKKNWVERNSYSCSVVHEGLHNHHTTKSFSRTPGK", "values": [
      {"measurement": "EC50 (nM), ADCC reporter assay, mouse FcγRIV effector cells, HuT-78 target cells", "setting": "human CCR8 (hCCR8) [2]", "value": 0.345, "unit": "nM"},
      {"measurement": "Fold Induction, ADCC reporter assay, mouse FcγRIV effector cells, HuT-78 target cells", "setting": "human CCR8 (hCCR8) [2]", "value": 9.74, "unit": "fold"}
    ]},
    {"binder": "BMS-4A19 (antibody, human IgG1, kappa, Comparator from WO2021194942A1, made in HEK293 cells) heavy: not shown light: DIVMTQTPLSLSVTPGQPASISCRSSQSLFHSSGNTYLHWYLQKPGQPPQLLIYKVSNRFSGVPDRFSGSGSGTDFTLKISRVEAEDVGVYYCSQSTHVPFTFGQGTKLEIKRTVAAPSVFIFPPSDEQLKSGTASVVCLLNNFYPREAKVQWKVDNALQSGNSQESVTEQDSKDSTYSLSSTLTLSKADYEKHKVYACEVTHQGLSSPVTKSFNRGEC", "values": [
      {"measurement": "binding result", "setting": "[3]", "value": "no binding"}
    ]},
    {"binder": "VHH-1 (VHH, not shown: small tags and cut ends, Monovalent VHH purified from E. coli periplasm (PelB signal peptide)) VHH: QVQLQESGGGLVQAGGSLRLSCVASGSTSSIRRIGWYRQAPGKQRELVARFSSGGGTNYADFVKGRFTISGDNAKNTMYLQMNSLKPEDTAVYYCSARRLLGTSRVDYWGQGTQVTVSS", "values": [
      {"measurement": "binding result", "setting": "human CCR7 (hCCR7)", "value": "no binding"}
    ]},
    {"binder": "VHH-3 (VHH, not shown: small tags and cut ends, Monovalent VHH purified from E. coli periplasm (PelB signal peptide)) VHH: QVQLQESGGGLVQAGGSLRLSCVASGSTSSIRRIGWYRQAPGKQRELVARFSSGGGTNYADFVKGRFTISGDNAKNTMYLQMNSLKPEDTAVYYCGARRLLGTSRVDYWGQGTQVTVSS", "values": [
      {"measurement": "binding result", "setting": "human CCR7 (hCCR7)", "value": "no binding"}
    ]}
  ]
}
